Laboratory results published in IntAct's records for PubMed 21816275.

B1: Septum site-determining protein MinD (Escherichia coli (strain K12)), P0AEZ3 (parent)
chain: MARIIVVTSGKGGVGKTTSSAAIATGLAQKGKKTVVIDFDIGLRNLDLIMGCERRVVYDFVNVIQGDATLNQALIKDKRTENLYILPASQTRDKDALTREGVAKVLDDLKAMDFEFIVCDSPAGIETGALMALYFADEAIITTNPEVSSVRDSDRILGILASKSRRAENGEEPIKEHLLLTRYNPGRVSRGDMLSMEDVLEILRIKLVGVIPEDQSVLRASNQGEPVILDINADAGKAYADTVERLLGEERPFRFIEEEKKGFLKRLFGG

Variants of: B1
Details: with mine_ecoli minE

Effect of a mutation on the interaction, disrupting interaction:
G224C
M193L
D192Y
D198R
N222A
